# Reference: the RNAGym collection of RNA variant scans (doi:10.1021/acssynbio.7b00057)
# B1: Pistol ribozyme (parent)
# chain: GGGUCGUUGUUCCAUAAUCGCGUGGAUAUGGCACGCAAGUUUCUACCGGGCACCGUAAAUGUCCGACUGGAGCCGUUCGGGCGGCUAUAAACAGACCUCAGGCCCGAAGCGUGGCGGCACCUGCCGCCGGUGGUAAAAAAGAUCGGAAGAGCACACGUCU
# Variants of: B1
# Test: aptazyme ON/OFF ratio, guanine; higher = stronger switching; co-transcriptional cleavage with and without guanine
row,Variant,aptazyme ON/OFF ratio
1,U7A U8A G9A U10G U11A C12G C13A,1.08
2,U7A U8A G9A U10G U11A C12G C13U,1.33
3,U7A U8A G9A U10G U11A C12G C13G,1.15
4,U7A U8A G9A U10C U11C C12U C13G,1.03
5,U7A U8A G9A U10C U11C C12U C13U,1.05
6,U7A U8A G9A U10C U11C C12U C13A,1.06
7,U7A U8A G9A U10G U11C C13A,1.08
8,U7A U8A G9A U10G U11C C13U,1.03
9,U7A U8A G9A U10G U11C C13G,1.08
10,U7A U8A G9A C12G,1.4
11,U7A U8A G9A C12A,1.46
12,U7A U8A G9A C12U,1.32
13,U7A U8A G9A U11A C13A,1.2
14,U7A U8A G9A U11A C13G,1.11
15,U7A U8A G9A U11A C13U,1.19
16,U7A U8A G9A U10A U11A C12G,1.27
17,U7A U8A G9A U10A U11A C12U,1.17
18,U7A U8A G9A U10A U11A C12A,1.26
19,U7A U8A G9A U10A U11G C12G C13G,1.32
20,U7A U8A G9A U10A U11G C12G C13U,1.59
21,U7A U8A G9A U10A U11G C12G C13A,1.25
22,U7A U8A G9A U11C C12A C13G,1.14
23,U7A U8A G9A U11C C12A C13A,1.17
24,U7A U8A G9A U11C C12A C13U,1.22

row,Variant,aptazyme ON/OFF ratio
1,U7A G9U U11A,1.27
2,U7A G9U U11G,1.36
3,U7A G9U U11C,1.15
4,U7A U8A G9A U10G U11C C12G C13U,1.31
5,U7A U8A G9A U10G U11C C12G C13A,1.24
6,U7A U8A G9A U10G U11C C12G C13G,1.17
7,U7A G9U U10G U11C C12A,1.21
8,U7A G9U U10G U11C C12G,1.21
9,U7A G9U U10G U11C C12U,1.06
10,U7A U8A G9A U11A C12G C13G,1.28
11,U7A U8A G9A U11A C12G C13A,1.14
12,U7A U8A G9A U11A C12G C13U,1.25
13,U7A U8A G9A C13U,1.22
14,U7A U8A G9A C13A,1.11
15,U7A U8A G9A C13G,1.11
16,U7A U8A G9A U10C U11A C13A,1.11
17,U7A U8A G9A U10C U11A C13U,1.09
18,U7A U8A G9A U10C U11A C13G,1.09
19,U7A U8A G9A U10A C13A,1.12
20,U7A U8A G9A U10A C13U,1.17
21,U7A U8A G9A U10A C13G,1.05
22,U7A G9U U10G U11C C12G C13A,1.15
23,U7A G9U U10G U11C C12G C13U,1.31
24,U7A G9U U10G U11C C12G C13G,1.17

row,Variant,aptazyme ON/OFF ratio
1,U7A U8A G9A U10G C12U C13G,1.17
2,U7A U8A G9A U10G C12U C13A,1.05
3,U7A U8A G9A U10G C12U C13U,0.929
4,U7A U8A G9A U10G C12U,1.14
5,U7A U8A G9A U10G C12G,1.32
6,U7A U8A G9A U10G C12A,1.18
7,U7A U8A C12G C13G,1.35
8,U7A U8A C12G C13U,1.48
9,U7A U8A C12G C13A,1.2
10,U7A G9U U11G C13G,1.04
11,U7A G9U U11G C13A,1.15
12,U7A G9U U11G C13U,1.31
13,U7A U8A G9A U10C U11C C12G,1.05
14,U7A U8A G9A U10C U11C C12U,1.04
15,U7A U8A G9A U10C U11C C12A,1.18
16,U7A G9U U11G C12A C13A,1.18
17,U7A G9U U11G C12A C13G,1.36
18,U7A G9U U11G C12A C13U,1.22
19,U7A U8A G9A U10C U11G C13A,1.08
20,U7A U8A G9A U10C U11G C13G,1.24
21,U7A U8A G9A U10C U11G C13U,1.09
22,U7A G9U U10G U11C C12U C13U,1.22
23,U7A G9U U10G U11C C12U C13A,1.29
24,U7A G9U U10G U11C C12U C13G,1.19

row,Variant,aptazyme ON/OFF ratio
1,U7A U8A G9A U10C C12A C13A,1.13
2,U7A U8A G9A U10C C12A C13G,1.03
3,U7A U8A G9A U10C C12A C13U,1
4,U7A G9U U10G U11G C12G,1.43
5,U7A G9U U10G U11G C12A,1.13
6,U7A G9U U10G U11G C12U,1.16
7,U7A U8A G9A C12A C13A,1.06
8,U7A U8A G9A C12A C13G,1.06
9,U7A U8A G9A C12A C13U,1.07
10,U7A G9U U10G U11G C12G C13G,1.4
11,U7A G9U U10G U11G C12G C13A,1.23
12,U7A G9U U10G U11G C12G C13U,1.45
13,U7A U8A G9A U11A C12U C13G,1.23
14,U7A U8A G9A U11A C12U C13A,1.07
15,U7A U8A G9A U11A C12U C13U,1.22
16,U7A U8A G9A U10G U11A C13G,1.03
17,U7A U8A G9A U10G U11A C13U,0.974
18,U7A U8A G9A U10G U11A C13A,1.01
19,U7A G9U U11A C12U C13U,1.22
20,U7A G9U U11A C12U C13A,1.41
21,U7A G9U U11A C12U C13G,1.28
22,U7A U8A G9A U10C U11A C12A C13U,1.13
23,U7A U8A G9A U10C U11A C12A C13G,1.06
24,U7A U8A G9A U10C U11A C12A C13A,1.11

row,Variant,aptazyme ON/OFF ratio
1,U7A U8A G9A U10G C13G,1.46
2,U7A U8A G9A U10G C13U,1.34
3,U7A U8A G9A U10G C13A,1.6
4,U7A U8A G9A U10C C13G,1.04
5,U7A U8A G9A U10C C13A,1.13
6,U7A U8A G9A U10C C13U,1.09
7,U7A U8A G9A U10C U11A C12G C13G,1.11
8,U7A U8A G9A U10C U11A C12G C13U,1.1
9,U7A U8A G9A U10C U11A C12G C13A,1.08
10,U7A U8A G9A U11A,1.16
11,U7A U8A G9A U11C,1.03
12,U7A G9U U11G C12G C13G,1.32
13,U7A G9U U11G C12G C13U,1.14
14,U7A G9U U11G C12G C13A,1.26
15,U7A G9U U10G U11G C12U C13G,1.15
16,U7A G9U U10G U11G C12U C13A,1.26
17,U7A G9U U10G U11G C12U C13U,1.51
18,U7A G9U U11C C12A C13U,1.24
19,U7A G9U U11C C12A C13G,1.16
20,U7A G9U U11C C12A C13A,1.24
21,U7A U8A G9A U10A U11G C12A C13A,1.16
22,U7A U8A G9A U10A U11G C12A C13U,1.24
23,U7A U8A G9A U10A U11G C12A C13G,1.24
24,U7A U8A G9A U10C U11G C12U C13A,1.14

row,Variant,aptazyme ON/OFF ratio
1,U7A U8A G9A U10C U11G C12U C13U,1.13
2,U7A U8A G9A U10C U11G C12U C13G,1.05
3,U7A U8A G9A U10A C12U,1.23
4,U7A U8A G9A U10A C12A,1.28
5,U7A U8A G9A U10A C12G,1.24
6,U7A U8A G9A U10G U11A C12U C13A,1.13
7,U7A U8A G9A U10G U11A C12U C13U,1.1
8,U7A U8A G9A U10G U11A C12U C13G,1.16
9,U7A G9U U10G U11C C13U,1.05
10,U7A G9U U10G U11C C13G,1.08
11,U7A G9U U10G U11C C13A,1.1
12,U7A U8A G9A U10A U11G C13G,1.18
13,U7A U8A G9A U10A U11G C13U,1.16
14,U7A U8A G9A U10A U11G C13A,1.17
15,U7A G9U U11C C12U C13U,1.26
16,U7A G9U U11C C12U C13A,1.2
17,U7A G9U U11C C12U C13G,1.1
18,U7A U8A G9A U11C C12A,1.16
19,U7A U8A G9A U11C C12G,1.1
20,U7A U8A G9A U11C C12U,1.06
21,U7A U8A C13U,1.69
22,U7A U8A C13G,1.22
23,U7A U8A C13A,1.38
24,U7A U8A G9A U10G U11G C12A C13U,1.29

row,Variant,aptazyme ON/OFF ratio
1,U7A U8A G9A U10G U11G C12A C13G,1.29
2,U7A U8A G9A U10G U11G C12A C13A,1.2
3,U7A G9U U10G U11G C12A C13A,1.11
4,U7A G9U U10G U11G C12A C13G,1.12
5,U7A G9U U10G U11G C12A C13U,1.21
6,U7A U8A G9A C12G C13A,1.09
7,U7A U8A G9A C12G C13G,1.12
8,U7A U8A G9A C12G C13U,1.14
9,U7A U8A G9A U10C U11C C12A C13G,1.04
10,U7A U8A G9A U10C U11C C12A C13A,1.12
11,U7A U8A G9A U10C U11C C12A C13U,1.07
12,U7A U8A G9A U10A U11A,1.15
13,U7A U8A G9A U10A U11G,1.29
14,U7A U8A G9A U10A U11C,1.04
15,U7A U8A G9A U10A U11C C13G,1.06
16,U7A U8A G9A U10A U11C C13A,1.05
17,U7A U8A G9A U10A U11C C13U,1.08
18,U7A U8A G9A U10G U11G C12A,1.18
19,U7A U8A G9A U10G U11G C12U,1.33
20,U7A U8A G9A U10G U11G C12G,1.52
21,U7A G9U U11C C12G,1.18
22,U7A G9U U11C C12U,1.16
23,U7A G9U U11C C12A,1.34
